Measurements as given in patent US6106844A, “Immunomodulatory peptides of vespid antigen 5” (The Rockfeller University, priority 1998, dated 2000).

Columns and labels:
[1] = tested on: r-Ag5 specific spleen cells from P/J mice; assay: In vitro proliferation assay, spleen cells of r-Ag5-immunized P/J mice; assay type: cell-based; details: spleen cells from mice immunized 5 times with rAg5; blank 1730 cpm
Description: FIG. 12. Stimulation index profile of P/J mice spleens after 5 immunizations with r-Ag5. In vitro proliferation assays were performed with peptides at three concentrations: 1×10^-5 M (open bar), 1.25×10^-6 M ("uphill" hatch), and 1.56×10^-7 M ("downhill" hatch). The corresponding concentrations of recombinant Antigen 5 were 1.0 ×10^-6 M, 1.25×10^-7, and 1.56×10^-8 M. The blank was 1730 cpm.
The peptides of the invention can be tested in a proliferation assay for T cell responses. Generally, lymphocytes from a sensitized host are obtained. The host can be a mouse that has been immunized with a vespid venom antigen 5, or with a crossreactive protein, such as testes specific protein. Using techniques that are well known in the art, T lymphocyte response to the peptide can be measured in vitro. In a specific embodiment, infra, T cell responses are detected by measuring incorporation of ^3 H-thymidine, which increases with DNA synthesis associated with proliferation. Cell proliferation can also be detected using an MTT assay [Mossman, J. Immunol. Methods, 65:55-63,(1983); Niks and Otto, J. Immunol. Methods, 130:140-151 (1990)]. […] Alternatively, mRNA for lymphokines can be detected, e.g., by amplification [see Brenner, et al., Biotechniques, 7:1096 (1989)] or in situ hybridization [see, e.g., Kasaian and Biron, J. Immunol., 142:1287 (1989)]. […]

n-Dol m 5.01 = target: T1, n-Dol m 5.01 (Dolichovespula maculata, UniProt P10736); assay: Antibody response by direct ELISA of mice immunized with recombinant white faced hornet Ag5, wells coated with n-Dol m 5.01; assay type: in vivo; details: week five sera after three i.p. immunizations with rDol m 5.02 and alum
T1 construct: from tissue; host or cells: natural protein
T1 sequence (P10736 24-227): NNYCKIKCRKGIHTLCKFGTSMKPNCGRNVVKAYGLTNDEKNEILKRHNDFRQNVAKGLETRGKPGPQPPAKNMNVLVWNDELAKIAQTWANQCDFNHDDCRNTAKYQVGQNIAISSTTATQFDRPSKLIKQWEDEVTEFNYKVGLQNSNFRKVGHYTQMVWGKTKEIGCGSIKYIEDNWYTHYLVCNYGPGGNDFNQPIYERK
Description: (§1) Antibody response in mice of different haplotypes to recombinant hornet Ag5. Five strains of mice were immunized with recombinant (r) white faced hornet Ag5 and alum as adjuvant. […] The antibody titers (the reciprocal of the dilution yielding 50% of maximum signal extrapolated from ELISA curves in wells coated with r-Dol m 5.02 or n-Dol m 5.01) of these sera for n-(natural) and r-Ag5 are given in Table 3.
(§2) *Sera are from week five bleeding after three intraperitoneal
(§3) immunizations with 0.2 ml of 10 μg/ml rDol m 5.02 and alum (5 μg/ml
(§4) in 0.05 m sodium phosphate buffer, pH 6.2, on weeks 0, 2, and 4.

r-Dol m 5.02 = target: T2, r-Dol m 5.02 (Dolichovespula maculata, UniProt P10737); assay: Antibody response by direct ELISA of mice immunized with recombinant white faced hornet Ag5, wells coated with r-Dol m 5.02; assay type: in vivo; details: for Half maximal Ab titer r-Dol m 5.02: week five sera after three i.p. immunizations with rDol m 5.02 and alum; for antibody responder status: alum as adjuvant
T2 construct: made in house
T2 sequence (P10737 11-215): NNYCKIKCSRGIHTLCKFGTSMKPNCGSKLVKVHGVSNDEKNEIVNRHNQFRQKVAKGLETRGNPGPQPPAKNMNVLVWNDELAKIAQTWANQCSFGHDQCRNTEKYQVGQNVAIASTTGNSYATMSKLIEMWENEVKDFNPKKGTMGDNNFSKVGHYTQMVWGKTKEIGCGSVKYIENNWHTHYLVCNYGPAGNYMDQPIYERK
Description: as §1, §2, §3, §4

B1: r-Ag5: recombinant white faced hornet (Dolichovespula maculata) antigen 5 form 2, Dol m 5.02 (protein)
chain: T2 sequence (P10737 11-215)
- Stimulation Index P/J [1]: 20.8
- Half maximal Ab titer n-Dol m 5.01 (n-Dol m 5.01; ASW/Sn mice (haplotype s)): 1 × 10^5
- Half maximal Ab titer n-Dol m 5.01 (n-Dol m 5.01; BALB/c byj mice (haplotype d)): 4 × 10^4
- Half maximal Ab titer n-Dol m 5.01 (n-Dol m 5.01; C3H/He mice (haplotype k)): 2 × 10^3
- Half maximal Ab titer n-Dol m 5.01 (n-Dol m 5.01; C57B1/6 mice (haplotype b)): 2 × 10^1
- Half maximal Ab titer n-Dol m 5.01 (n-Dol m 5.01; P/J mice (haplotype p)): 1 × 10^4
- Half maximal Ab titer r-Dol m 5.02 (r-Dol m 5.02; ASW/Sn mice (haplotype s)): 1 × 10^5
- Half maximal Ab titer r-Dol m 5.02 (r-Dol m 5.02; BALB/c byj mice (haplotype d)): 8 × 10^4
- antibody responder status (r-Dol m 5.02; BALB/v byj, ASW/Sn, C3H/He, and P/J mice): high antibody responders
- Half maximal Ab titer r-Dol m 5.02 (r-Dol m 5.02; C3H/He mice (haplotype k)): 6 × 10^3
- Half maximal Ab titer r-Dol m 5.02 (r-Dol m 5.02; C57B1/6 mice (haplotype b)): 1 × 10^2
- antibody responder status (r-Dol m 5.02; C57B1/6 mice): poor antibody responder
- Half maximal Ab titer r-Dol m 5.02 (r-Dol m 5.02; P/J mice (haplotype p)): 2 × 10^4
